Experimental data taken from patent publication US20220010021A1 (Sanofi, published 2022).

T1: beta-Klotho (KLB) (Homo sapiens (Human), UniProt Q86Z14 1-996)
T1 construct: also called β-Klotho; not shown: C-terminal His tag of the bought R&D Systems protein
T1 sequence: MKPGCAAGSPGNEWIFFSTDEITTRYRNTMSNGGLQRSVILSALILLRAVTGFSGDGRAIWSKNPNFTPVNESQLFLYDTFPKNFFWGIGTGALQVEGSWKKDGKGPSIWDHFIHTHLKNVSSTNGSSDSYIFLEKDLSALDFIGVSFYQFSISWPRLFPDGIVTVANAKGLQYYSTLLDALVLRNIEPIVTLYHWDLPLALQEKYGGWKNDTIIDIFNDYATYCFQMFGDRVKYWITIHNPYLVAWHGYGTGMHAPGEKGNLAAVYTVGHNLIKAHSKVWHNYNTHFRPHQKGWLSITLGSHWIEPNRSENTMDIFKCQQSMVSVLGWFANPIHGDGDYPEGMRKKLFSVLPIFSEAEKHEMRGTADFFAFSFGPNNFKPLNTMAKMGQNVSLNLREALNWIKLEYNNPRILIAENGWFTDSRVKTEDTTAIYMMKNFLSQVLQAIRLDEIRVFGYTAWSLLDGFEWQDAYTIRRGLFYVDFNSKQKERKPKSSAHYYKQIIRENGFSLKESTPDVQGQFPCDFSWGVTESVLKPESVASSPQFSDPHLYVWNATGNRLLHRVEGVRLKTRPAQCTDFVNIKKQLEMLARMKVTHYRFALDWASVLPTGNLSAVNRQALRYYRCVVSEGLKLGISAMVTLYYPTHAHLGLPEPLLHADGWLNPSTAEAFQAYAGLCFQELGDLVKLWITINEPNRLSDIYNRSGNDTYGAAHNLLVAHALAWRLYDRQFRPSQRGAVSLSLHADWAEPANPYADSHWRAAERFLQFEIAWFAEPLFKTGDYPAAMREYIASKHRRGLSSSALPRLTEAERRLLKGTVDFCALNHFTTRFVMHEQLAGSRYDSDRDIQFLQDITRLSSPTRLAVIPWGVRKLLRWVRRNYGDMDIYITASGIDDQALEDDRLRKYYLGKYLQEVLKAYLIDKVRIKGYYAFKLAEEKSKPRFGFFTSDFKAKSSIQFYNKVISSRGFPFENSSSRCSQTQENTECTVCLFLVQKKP

T2: human beta-Klotho (KLB) (human, UniProt Q86Z14 53-997)
T2 construct: the BLI off-rate screen was run with human and with monkey KLB; also called human KLB; ß-Klotho
T2 sequence (looked up): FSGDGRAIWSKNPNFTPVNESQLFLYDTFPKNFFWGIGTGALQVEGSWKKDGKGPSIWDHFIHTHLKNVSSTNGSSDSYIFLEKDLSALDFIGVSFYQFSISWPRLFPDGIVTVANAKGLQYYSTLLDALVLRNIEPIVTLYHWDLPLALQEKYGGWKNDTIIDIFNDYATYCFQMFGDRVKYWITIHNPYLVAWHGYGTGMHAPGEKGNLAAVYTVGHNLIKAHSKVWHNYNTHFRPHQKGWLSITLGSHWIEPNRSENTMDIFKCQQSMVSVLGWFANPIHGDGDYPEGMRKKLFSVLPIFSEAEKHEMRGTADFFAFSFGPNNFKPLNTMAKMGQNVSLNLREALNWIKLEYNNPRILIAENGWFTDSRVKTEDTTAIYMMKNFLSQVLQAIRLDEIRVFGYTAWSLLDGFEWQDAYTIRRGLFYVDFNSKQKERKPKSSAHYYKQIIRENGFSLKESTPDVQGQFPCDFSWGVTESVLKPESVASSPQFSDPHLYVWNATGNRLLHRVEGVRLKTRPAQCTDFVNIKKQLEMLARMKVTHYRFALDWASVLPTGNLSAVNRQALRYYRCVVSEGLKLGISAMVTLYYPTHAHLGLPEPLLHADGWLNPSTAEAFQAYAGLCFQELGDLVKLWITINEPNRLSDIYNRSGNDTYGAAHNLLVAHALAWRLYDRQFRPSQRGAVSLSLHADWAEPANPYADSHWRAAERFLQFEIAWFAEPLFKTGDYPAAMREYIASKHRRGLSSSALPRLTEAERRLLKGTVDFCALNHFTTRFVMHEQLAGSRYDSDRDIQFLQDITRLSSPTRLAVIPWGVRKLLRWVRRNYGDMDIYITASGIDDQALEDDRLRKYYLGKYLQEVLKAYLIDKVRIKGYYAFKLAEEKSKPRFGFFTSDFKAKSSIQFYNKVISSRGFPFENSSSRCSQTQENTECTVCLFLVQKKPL


Experiments:
beta-Klotho (KLB) = biological target: T1, beta-Klotho (KLB); test: BLI (Octet) off-rate screening, mAb from supernatant on anti-hIgG Fc sensor, 5 nmol/L KLB;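 further: dissociation followed for 1800 s in D-PBS plus 0.1% BSA, antibody supernatants applied at 25 µg/mL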
[1] = biological target: cell surface receptor composed of the tyrosine kinase receptor FGFR1c and co-receptor beta-Klotho (KLB) (human, UniProt P11362 22-822; Q86Z14 1-1044); test: cell-based or functional assay
human beta-Klotho (KLB) = biological target: T2, human beta-Klotho (KLB); test: BLI off-rate screening (Octet HTX), antibody from supernatant on anti-hIgG Fc capture sensors, KLB 5 nmol/L as analyte
[2] = biological target: cell-surface receptor complex of human FGFR1c and beta-Klotho (KLB) on iLite FGF21 reporter cells (human, UniProt P11362 22-822; Q86Z14 1-1044); test: cell-based or functional assay
Sequence of cell-surface receptor complex of human FGFR1c and beta-Klotho (KLB) on iLite FGF21 reporter cells (P11362 22-822, one chain of several): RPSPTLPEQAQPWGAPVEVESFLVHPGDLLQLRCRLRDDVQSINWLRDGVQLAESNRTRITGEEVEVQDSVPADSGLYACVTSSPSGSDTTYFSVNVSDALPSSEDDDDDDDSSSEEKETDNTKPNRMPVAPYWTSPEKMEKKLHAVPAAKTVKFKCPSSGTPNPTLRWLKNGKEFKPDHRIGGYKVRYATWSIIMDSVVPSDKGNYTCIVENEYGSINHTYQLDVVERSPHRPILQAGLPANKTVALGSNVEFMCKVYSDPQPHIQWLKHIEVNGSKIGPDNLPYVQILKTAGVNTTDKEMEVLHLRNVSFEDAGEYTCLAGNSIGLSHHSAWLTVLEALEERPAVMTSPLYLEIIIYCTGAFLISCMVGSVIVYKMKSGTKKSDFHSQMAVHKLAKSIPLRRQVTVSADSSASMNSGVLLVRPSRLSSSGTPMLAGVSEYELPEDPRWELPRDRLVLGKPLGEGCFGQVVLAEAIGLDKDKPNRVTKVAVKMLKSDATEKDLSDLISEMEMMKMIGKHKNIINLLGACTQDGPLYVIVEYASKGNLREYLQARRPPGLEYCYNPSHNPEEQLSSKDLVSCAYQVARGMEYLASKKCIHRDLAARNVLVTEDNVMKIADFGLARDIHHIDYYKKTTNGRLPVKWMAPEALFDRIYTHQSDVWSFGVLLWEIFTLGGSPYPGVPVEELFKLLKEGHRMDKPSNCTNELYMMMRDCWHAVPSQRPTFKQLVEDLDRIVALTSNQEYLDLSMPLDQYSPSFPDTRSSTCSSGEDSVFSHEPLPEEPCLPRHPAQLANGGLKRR

Sequence of cell surface receptor composed of the tyrosine kinase receptor FGFR1c and co-receptor beta-Klotho (KLB) (P11362 22-822, one chain of several): as above

| koff (beta-Klotho (KLB)) [s⁻¹] | Mean E max, Luciferase gene reporter assay [1] [%] | Mean EC50, Luciferase gene reporter assay [1] [nM] | koff (human beta-Klotho (KLB)) [s⁻¹] | Mean E max (%), Luciferase gene reporter assay [2] [%] | Mean EC50 (nM), Luciferase gene reporter assay [2] [nM] | Binder |
| --- | --- | --- | --- | --- | --- | --- |
| 1.7e-05 | 110 | 0.12 |  |  |  | 16H7 variant with light chain substitution V97I (antibody, human IgG4 S228P, lambda, V domains shown, IgG4 backbone was used) VH: not shown VL: SYVLTQPPSVSVAPGQTARITCGGNNIGSESVHWYQQKPGQAPVLVVYDDSDRPSGIPERFSGSNSGNTATLTISRVEAGDEADYYCQVWDGNSDHIVFGGGTKLTVLG |
|  |  |  | 3.9e-05 | 107 | 0.094 | 16H7 variant with single point mutation V98S in the light chain (antibody, V domains shown, Tested from HEK293-F supernatant) VH: not shown VL: SYVLTQPPSVSVAPGQTARITCGGNNIGSESVHWYQQKPGQAPVLVVYDDSDRPSGIPERFSGSNSGNTATLTISRVEAGDEADYYCQVWDGNSDHVSFGGGTKLTVLG |
| 3.3e-05 | 116 | 0.105 |  |  |  | 16H7 variant with light chain substitution V98I (antibody, human IgG4 S228P, lambda, V domains shown, IgG4 backbone was used) VH: not shown VL: SYVLTQPPSVSVAPGQTARITCGGNNIGSESVHWYQQKPGQAPVLVVYDDSDRPSGIPERFSGSNSGNTATLTISRVEAGDEADYYCQVWDGNSDHVIFGGGTKLTVLG |
|  |  |  | 1.1e-05 | 105 | 0.118 | 16H7 variant with single point mutation V98G in the light chain (antibody, V domains shown, Tested from HEK293-F supernatant) VH: not shown VL: SYVLTQPPSVSVAPGQTARITCGGNNIGSESVHWYQQKPGQAPVLVVYDDSDRPSGIPERFSGSNSGNTATLTISRVEAGDEADYYCQVWDGNSDHVGFGGGTKLTVLG |
| 0.0001 | 99 | 0.142 |  |  |  | 16H7 variant with light chain substitution V97T (antibody, human IgG4 S228P, lambda, V domains shown, IgG4 backbone was used) VH: not shown VL: SYVLTQPPSVSVAPGQTARITCGGNNIGSESVHWYQQKPGQAPVLVVYDDSDRPSGIPERFSGSNSGNTATLTISRVEAGDEADYYCQVWDGNSDHTVFGGGTKLTVLG |
| 3.3e-05 | 103 | 0.214 |  |  |  | 16H7 variant with light chain substitution V97M (antibody, human IgG4 S228P, lambda, V domains shown, IgG4 backbone was used) VH: not shown VL: SYVLTQPPSVSVAPGQTARITCGGNNIGSESVHWYQQKPGQAPVLVVYDDSDRPSGIPERFSGSNSGNTATLTISRVEAGDEADYYCQVWDGNSDHMVFGGGTKLTVLG |
| 0.00033 | 95 | 0.206 |  |  |  | 16H7 variant with light chain substitution V97N (antibody, human IgG4 S228P, lambda, V domains shown, IgG4 backbone was used) VH: not shown VL: SYVLTQPPSVSVAPGQTARITCGGNNIGSESVHWYQQKPGQAPVLVVYDDSDRPSGIPERFSGSNSGNTATLTISRVEAGDEADYYCQVWDGNSDHNVFGGGTKLTVLG |
|  |  |  | 0.00013 | 105 | 0.121 | 16H7 variant with single point mutation V98L in the light chain (antibody, V domains shown, Tested from HEK293-F supernatant) VH: not shown VL: SYVLTQPPSVSVAPGQTARITCGGNNIGSESVHWYQQKPGQAPVLVVYDDSDRPSGIPERFSGSNSGNTATLTISRVEAGDEADYYCQVWDGNSDHVLFGGGTKLTVLG |
| 2.1e-05 | 112 | 0.111 |  |  |  | 16H7 variant with light chain substitution V98N (antibody, human IgG4 S228P, lambda, V domains shown, IgG4 backbone was used) VH: not shown VL: SYVLTQPPSVSVAPGQTARITCGGNNIGSESVHWYQQKPGQAPVLVVYDDSDRPSGIPERFSGSNSGNTATLTISRVEAGDEADYYCQVWDGNSDHVNFGGGTKLTVLG |
| 7.3e-05 | 89 | 0.131 |  |  |  | 16H7 variant with light chain substitution V98P (antibody, human IgG4 S228P, lambda, V domains shown, IgG4 backbone was used) VH: not shown VL: SYVLTQPPSVSVAPGQTARITCGGNNIGSESVHWYQQKPGQAPVLVVYDDSDRPSGIPERFSGSNSGNTATLTISRVEAGDEADYYCQVWDGNSDHVPFGGGTKLTVLG |
| 3.7e-05 | 111 | 0.121 |  |  |  | 16H7 variant with light chain substitution V98Q (antibody, human IgG4 S228P, lambda, V domains shown, IgG4 backbone was used) VH: not shown VL: SYVLTQPPSVSVAPGQTARITCGGNNIGSESVHWYQQKPGQAPVLVVYDDSDRPSGIPERFSGSNSGNTATLTISRVEAGDEADYYCQVWDGNSDHVQFGGGTKLTVLG |
| 7.2e-05 | 108 | 0.114 |  |  |  | 16H7 variant with light chain substitution V98M (antibody, human IgG4 S228P, lambda, V domains shown, IgG4 backbone was used) VH: not shown VL: SYVLTQPPSVSVAPGQTARITCGGNNIGSESVHWYQQKPGQAPVLVVYDDSDRPSGIPERFSGSNSGNTATLTISRVEAGDEADYYCQVWDGNSDHVMFGGGTKLTVLG |
|  |  |  | 4.6e-05 | 99 | 0.139 | 16H7 variant with single point mutation V98A in the light chain (antibody, V domains shown, Tested from HEK293-F supernatant) VH: not shown VL: SYVLTQPPSVSVAPGQTARITCGGNNIGSESVHWYQQKPGQAPVLVVYDDSDRPSGIPERFSGSNSGNTATLTISRVEAGDEADYYCQVWDGNSDHVAFGGGTKLTVLG |
| 6.4e-05 | 100 | 0.105 |  |  |  | 16H7 variant with light chain substitution V98C (antibody, human IgG4 S228P, lambda, V domains shown, IgG4 backbone was used) VH: not shown VL: SYVLTQPPSVSVAPGQTARITCGGNNIGSESVHWYQQKPGQAPVLVVYDDSDRPSGIPERFSGSNSGNTATLTISRVEAGDEADYYCQVWDGNSDHVCFGGGTKLTVLG |
| 5.9e-05 | 110 | 0.129 |  |  |  | 16H7 variant with light chain substitution V97L (antibody, human IgG4 S228P, lambda, V domains shown, IgG4 backbone was used) VH: not shown VL: SYVLTQPPSVSVAPGQTARITCGGNNIGSESVHWYQQKPGQAPVLVVYDDSDRPSGIPERFSGSNSGNTATLTISRVEAGDEADYYCQVWDGNSDHLVFGGGTKLTVLG |
| 1.6e-05 | 102 | 0.161 |  |  |  | 16H7 variant with light chain substitution V98F (antibody, human IgG4 S228P, lambda, V domains shown, IgG4 backbone was used) VH: not shown VL: SYVLTQPPSVSVAPGQTARITCGGNNIGSESVHWYQQKPGQAPVLVVYDDSDRPSGIPERFSGSNSGNTATLTISRVEAGDEADYYCQVWDGNSDHVFFGGGTKLTVLG |
|  |  |  | 1.8e-05 | 103 | 0.107 | 16H7 variant with single point mutation V98H in the light chain (antibody, V domains shown, Tested from HEK293-F supernatant) VH: not shown VL: SYVLTQPPSVSVAPGQTARITCGGNNIGSESVHWYQQKPGQAPVLVVYDDSDRPSGIPERFSGSNSGNTATLTISRVEAGDEADYYCQVWDGNSDHVHFGGGTKLTVLG |
|  |  |  | 9e-05 | 106 | 0.111 | 16H7 variant with single point mutation V98K in the light chain (antibody, V domains shown, Tested from HEK293-F supernatant) VH: not shown VL: SYVLTQPPSVSVAPGQTARITCGGNNIGSESVHWYQQKPGQAPVLVVYDDSDRPSGIPERFSGSNSGNTATLTISRVEAGDEADYYCQVWDGNSDHVKFGGGTKLTVLG |
